Reference: patent publication US20100317837A1

Columns and labels:
[1] = target: Env 89.6 on 293 cells (HIV-1 isolate 89.6, clade B); assay: cell-based or functional assay
[2] = target: Env BR029.2 on 293 cells (HIV-1 isolate BR029.2, clade F); assay: cell-based or functional assay
[3] = target: Env UG037.8 on 293 cells (HIV-1 isolate UG037.8, clade A); assay: cell-based or functional assay
[4] = target: Env US005.11 on 293 cells (HIV-1 isolate US005.11, clade B); assay: cell-based or functional assay
[5] = target: Env US715.6 on 293 cells (HIV-1 isolate US715.6, clade B); assay: cell-based or functional assay
[6] = target: Env UG975.10 on 293 cells (HIV-1 isolate UG975.10, clade G); assay: cell-based or functional assay
[7] = target: Env RW020.5 on 293 cells (HIV-1 isolate RW020.5, clade A); assay: cell-based or functional assay
[8] = target: Env NL4-3 on 293 cells (HIV-1 NL4-3, clade B); assay: cell-based or functional assay
[9] = target: Env TH022.4 on 293 cells (HIV-1 isolate TH022.4, clade EA); assay: cell-based or functional assay
[10] = target: Env BR025.9 on 293 cells (HIV-1 isolate BR025.9, clade C); assay: cell-based or functional assay
[11] = target: Env HT593.1 on 293 cells (HIV-1 isolate HT593.1, clade B); assay: cell-based or functional assay
[12] = target: Env clone GX-C44 on pseudotype virus (HIV-1 isolate GX-C44, Clade C); assay: cell-based or functional assay
[13] = target: Env clone VI1273 on pseudotype virus (HIV-1 isolate VI1273); assay: cell-based or functional assay
[14] = target: Env clone R2 on pseudotype virus (HIV-1 isolate R2, Clade B); assay: cell-based or functional assay
[15] = target: Env clone VI1399 on pseudotype virus (HIV-1 isolate VI1399); assay: cell-based or functional assay
[16] = target: Env clone GX-E14 on pseudotype virus (HIV-1 isolate GX-E14, Clade E); assay: cell-based or functional assay
[17] = target: Env clone MN-TCLA on pseudotype virus (HIV-1 isolate MN-TCLA) (UniProt P05877); assay: cell-based or functional assay
UniProt P05877, sequence (P05877 32-856 limits assumed): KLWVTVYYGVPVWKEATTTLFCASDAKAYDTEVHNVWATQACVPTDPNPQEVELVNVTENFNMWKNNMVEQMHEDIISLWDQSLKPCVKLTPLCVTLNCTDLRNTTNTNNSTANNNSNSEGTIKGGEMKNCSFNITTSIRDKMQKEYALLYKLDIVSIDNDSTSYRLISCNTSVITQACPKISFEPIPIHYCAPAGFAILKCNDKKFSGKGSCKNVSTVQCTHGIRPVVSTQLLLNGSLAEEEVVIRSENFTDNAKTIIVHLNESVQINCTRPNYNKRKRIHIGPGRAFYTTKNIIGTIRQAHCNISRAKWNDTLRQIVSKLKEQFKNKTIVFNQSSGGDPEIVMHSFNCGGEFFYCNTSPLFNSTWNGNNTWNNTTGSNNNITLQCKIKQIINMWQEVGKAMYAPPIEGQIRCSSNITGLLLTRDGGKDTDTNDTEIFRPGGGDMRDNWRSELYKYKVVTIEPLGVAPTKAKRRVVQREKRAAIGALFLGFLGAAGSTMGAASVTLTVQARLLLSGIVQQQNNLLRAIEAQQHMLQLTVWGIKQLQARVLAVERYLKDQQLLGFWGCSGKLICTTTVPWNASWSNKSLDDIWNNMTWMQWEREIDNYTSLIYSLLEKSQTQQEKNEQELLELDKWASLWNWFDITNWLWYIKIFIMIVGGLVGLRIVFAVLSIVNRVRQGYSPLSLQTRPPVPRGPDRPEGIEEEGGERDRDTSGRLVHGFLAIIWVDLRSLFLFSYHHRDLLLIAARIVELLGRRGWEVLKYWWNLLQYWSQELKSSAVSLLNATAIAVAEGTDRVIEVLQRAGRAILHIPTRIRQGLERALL

[18] = target: Env clone TH966 on pseudotype virus (HIV-1 isolate TH966); assay: cell-based or functional assay
[19] = target: Env clone Z2Z6 on pseudotype virus (HIV-1 isolate Z2Z6, Clade D); assay: cell-based or functional assay
[20] = target: sCD4-gp120 89.6 complex (HIV-1 isolate 89.6) (UniProt P01730); assay: ELISA, antigen coated on plate, soluble Fab titrated, Langmuir fit
[21] = target: gp120 JR-FL (HIV-1 isolate JR-FL); assay: as above
[22] = target: gp120 89.6 (HIV-1 isolate 89.6); assay: as above
[23] = target: Env clone V5 on pseudotype virus (HIV-1 isolate V5); assay: cell-based or functional assay
[24] = target: Env clone VI14004 on pseudotype virus (HIV-1 isolate VI14004, Clade F); assay: cell-based or functional assay
[25] = target: Env clone P37 on pseudotype virus (HIV-1 isolate P37); assay: cell-based or functional assay
[26] = target: Env clone 92RW020.5 on pseudotype virus (HIV-1 isolate 92RW020.5, Clade A); assay: cell-based or functional assay
[27] = target: gp140 89.6 (HIV-1 isolate 89.6); assay: ELISA, soluble Fab titrated on Env (direct or D7324 capture format not specified)
[28] = target: gp120 IIIB (HIV-1 isolate IIIB) (UniProt P04578); assay: ELISA, soluble Fab titrated on Env (direct or D7324 capture format not specified); IIIB* is gp120
[29] = target: gp120 IIIB (HIV-1 isolate IIIB) (UniProt P04578); assay: ELISA, antigen coated on plate, soluble Fab titrated, Langmuir fit

Substance	% of fusion inhibition, cell-cell fusion assay, Fab at 50 µg/ml [1] [%]	% of fusion inhibition, cell-cell fusion assay, Fab at 50 µg/ml [2] [%]	% of fusion inhibition, cell-cell fusion assay, Fab at 50 µg/ml [3] [%]	% of fusion inhibition, cell-cell fusion assay, Fab at 50 µg/ml [4] [%]	% of fusion inhibition, cell-cell fusion assay, Fab at 50 µg/ml [5] [%]	% of fusion inhibition, cell-cell fusion assay, Fab at 50 µg/ml [6] [%]	% of fusion inhibition, cell-cell fusion assay, Fab at 50 µg/ml [7] [%]	% of fusion inhibition, cell-cell fusion assay, Fab at 50 µg/ml [8] [%]	% of fusion inhibition, cell-cell fusion assay, Fab at 50 µg/ml [9] [%]	% of fusion inhibition, cell-cell fusion assay, Fab at 50 µg/ml [10] [%]	% of fusion inhibition, cell-cell fusion assay, Fab at 50 µg/ml [11] [%]	Concentration of Fab at the 50% neutralization endpoint, pseudovirus assay [12] [µg/mL]	Concentration of Fab at the 50% neutralization endpoint, pseudovirus assay [13] [µg/mL]	Concentration of Fab at the 50% neutralization endpoint, pseudovirus assay [14] [µg/mL]	Concentration of Fab at the 50% neutralization endpoint, pseudovirus assay [15] [µg/mL]	Concentration of Fab at the 50% neutralization endpoint, pseudovirus assay [16] [µg/mL]	Concentration of Fab at the 50% neutralization endpoint, pseudovirus assay [17] [µg/mL]	Concentration of Fab at the 50% neutralization endpoint, pseudovirus assay [18] [µg/mL]	Concentration of Fab at the 50% neutralization endpoint, pseudovirus assay [19] [µg/mL]	Kd [20] [pM]	also measured
Fab X5	93	36	34	72	28	19	45	83	43	71	27										
Fab m14	100	71	100	95	35	22	31	96	100	71	78	8.8	3.1	2.24	> 100	100	2.24	> 100	50	7300	Kd [21]: 900 pM; Kd [22]: 5400 pM
Fab m18	100	86	34	93	97	56	25	92	93	86	39	> 25	25	1.6	> 100	> 100	< 1.6	> 100	25	900	Concentration of Fab at the 50% neutralization endpoint, pseudovirus assay [23]: < 2 µg/mL; Concentration of Fab at the 50% neutralization endpoint, pseudovirus assay [24]: < 2 µg/mL; Concentration of Fab at the 50% neutralization endpoint, pseudovirus assay [25]: 100 µg/mL; Concentration of Fab at the 50% neutralization endpoint, pseudovirus assay [26]: 3 µg/mL; EC50 [27]: 1170 pM; EC50 [28]: 480 pM; Kd [21]: 900 pM; Kd [22]: 1000 pM; Kd [29]: 80 pM
